Test system: Escherichia coli TOP10
Assay: shrunken log2 fold change of peptide-encoding DNA abundance (4.5 h post-induction vs induction); higher = less antimicrobial activity (less host growth inhibition)
Settings: time post-induction: 4.5 h; library: site-saturation at positions 5, 18, 19, 20
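Further: peptides expressed intracellularly from a pBAD plasmid library in pooled LB shake-flask culture, induced with 0.3% L-arabinose, DNA abundance read by NGS, three biological replicates, DESeq2 with apeglm shrinkage.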

RRIRHRPPRLPRPRPRPSPCPRP
shrunken log2 fold change: -0.225

RRIRHRPPRLPRPRPRPSQCPRP
shrunken log2 fold change: -0.325

RRIRHRPPRLPRPRPRPSRCPRP
shrunken log2 fold change: -0.648

RRIRHRPPRLPRPRPRPSSQPRP
shrunken log2 fold change: -0.152

RRIRHRPPRLPRPRPRPSSRPRP
shrunken log2 fold change: -0.175

RRIRHRPPRLPRPRPRPSSVPRP
shrunken log2 fold change: 0.0608

RRIRHRPPRLPRPRPRPSTTPRP
shrunken log2 fold change: -0.416

RRIRHRPPRLPRPRPRPSYAPRP
shrunken log2 fold change: -0.21

RRIRHRPPRLPRPRPRPSYGPRP
shrunken log2 fold change: -0.34

RRIRHRPPRLPRPRPRPTAPPRP
shrunken log2 fold change: 0.184

RRIRHRPPRLPRPRPRPTCCPRP
shrunken log2 fold change: -0.125

RRIRHRPPRLPRPRPRPTDKPRP
shrunken log2 fold change: -0.185

RRIRHRPPRLPRPRPRPTDRPRP
shrunken log2 fold change: 0.0577

RRIRHRPPRLPRPRPRPTFTPRP
shrunken log2 fold change: -0.265

RRIRHRPPRLPRPRPRPTGVPRP
shrunken log2 fold change: 0.18

RRIRHRPPRLPRPRPRPTHHPRP
shrunken log2 fold change: -0.132

RRIRHRPPRLPRPRPRPTHNPRP
shrunken log2 fold change: -0.211

RRIRHRPPRLPRPRPRPTHRPRP
shrunken log2 fold change: 0.0822

RRIRHRPPRLPRPRPRPTHTPRP
shrunken log2 fold change: -0.00887

RRIRHRPPRLPRPRPRPTHVPRP
shrunken log2 fold change: 0.0105

RRIRHRPPRLPRPRPRPTKRPRP
shrunken log2 fold change: -0.0644

RRIRHRPPRLPRPRPRPTLNPRP
shrunken log2 fold change: 0.134

RRIRHRPPRLPRPRPRPTMHPRP
shrunken log2 fold change: -0.0232

RRIRHRPPRLPRPRPRPTPYPRP
shrunken log2 fold change: -0.0416

RRIRHRPPRLPRPRPRPTQAPRP
shrunken log2 fold change: 0.255

RRIRHRPPRLPRPRPRPTQQPRP
shrunken log2 fold change: 0.0495

RRIRHRPPRLPRPRPRPTQTPRP
shrunken log2 fold change: -0.0128

RRIRHRPPRLPRPRPRPTSIPRP
shrunken log2 fold change: 0.0484

RRIRHRPPRLPRPRPRPTSKPRP
shrunken log2 fold change: -0.125

RRIRHRPPRLPRPRPRPTTYPRP
shrunken log2 fold change: -0.9

RRIRHRPPRLPRPRPRPTVQPRP
shrunken log2 fold change: 0.118

RRIRHRPPRLPRPRPRPTVTPRP
shrunken log2 fold change: -0.0378

RRIRHRPPRLPRPRPRPTWSPRP
shrunken log2 fold change: 0.0859

RRIRHRPPRLPRPRPRPTYWPRP
shrunken log2 fold change: 0.293

RRIRHRPPRLPRPRPRPVCMPRP
shrunken log2 fold change: -0.0845

RRIRHRPPRLPRPRPRPVERPRP
shrunken log2 fold change: -0.00973

RRIRHRPPRLPRPRPRPVEVPRP
shrunken log2 fold change: 0.0201

RRIRHRPPRLPRPRPRPVFVPRP
shrunken log2 fold change: -0.182

RRIRHRPPRLPRPRPRPVFWPRP
shrunken log2 fold change: 0.0698

RRIRHRPPRLPRPRPRPVGSPRP
shrunken log2 fold change: 0.145

RRIRHRPPRLPRPRPRPVIPPRP
shrunken log2 fold change: -0.0562

RRIRHRPPRLPRPRPRPVIYPRP
shrunken log2 fold change: -0.678

RRIRHRPPRLPRPRPRPVKKPRP
shrunken log2 fold change: 0.0327

RRIRHRPPRLPRPRPRPVLFPRP
shrunken log2 fold change: -0.0987

RRIRHRPPRLPRPRPRPVLWPRP
shrunken log2 fold change: 0.234

RRIRHRPPRLPRPRPRPVLYPRP
shrunken log2 fold change: -0.317

RRIRHRPPRLPRPRPRPVMPPRP
shrunken log2 fold change: 0.189

RRIRHRPPRLPRPRPRPVNQPRP
shrunken log2 fold change: -0.0313

RRIRHRPPRLPRPRPRPVPRPRP
shrunken log2 fold change: 0.429

RRIRHRPPRLPRPRPRPVPTPRP
shrunken log2 fold change: 0.144

RRIRHRPPRLPRPRPRPVQSPRP
shrunken log2 fold change: 0.0377

RRIRHRPPRLPRPRPRPVQWPRP
shrunken log2 fold change: 0.0118

RRIRHRPPRLPRPRPRPVRDPRP
shrunken log2 fold change: 0.298

RRIRHRPPRLPRPRPRPVRFPRP
shrunken log2 fold change: 0.106

RRIRHRPPRLPRPRPRPVTCPRP
shrunken log2 fold change: 0.0254

RRIRHRPPRLPRPRPRPVWQPRP
shrunken log2 fold change: 0.0177

RRIRHRPPRLPRPRPRPVYCPRP
shrunken log2 fold change: -0.49

RRIRHRPPRLPRPRPRPWAFPRP
shrunken log2 fold change: 0.0477

RRIRHRPPRLPRPRPRPWAGPRP
shrunken log2 fold change: -0.15

RRIRHRPPRLPRPRPRPWCPPRP
shrunken log2 fold change: -0.402

— the supplement of paper PMC9112550, “Optimization of the antimicrobial peptide Bac7 by deep mutational scanning” (BMC Biology, 2022)
